Results from patent US20100287629A1.

Assays:
[1] = target: recombinant soluble human CD4 (human) (UniProt P01730); test: BIAcore; rCD4 coupled to chip, mAb flowed
[2] = target: recombinant soluble human CD4 (human) (UniProt P01730); test: SPR sensor chip; sCD4 amine-coupled, mAb flowed

Ka [1]: 3.7e+10 M⁻¹
koff [1]: 4.2e-06 s⁻¹
kon [1]: 150000 M⁻¹ s⁻¹
Ka [2]: 3.7e+10 M⁻¹
koff [2]: 4.2e-06 s⁻¹
kon [2]: 150000 M⁻¹ s⁻¹
Substance: Leu3a, mouse anti-human CD4 monoclonal antibody
